Source: patent US20230002466A1 (ELPIS BIOPHARMACEUTICALS, published 2023)

T1: human IL2Rβ (human, UniProt P14784 27-239)
T1 construct: also called IL2β; CD122
T1 sequence (looked up): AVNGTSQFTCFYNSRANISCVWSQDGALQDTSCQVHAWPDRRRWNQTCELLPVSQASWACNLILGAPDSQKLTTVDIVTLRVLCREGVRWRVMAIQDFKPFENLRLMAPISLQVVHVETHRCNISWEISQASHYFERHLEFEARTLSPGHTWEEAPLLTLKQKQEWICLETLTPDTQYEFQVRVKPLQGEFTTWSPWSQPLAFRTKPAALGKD

T2: human IL2Rβ Fc fusion protein (human, UniProt P14784 27-239)
T2 construct: also called Recombinant Fc-tagged human IL2Rβ; not shown: Fc
T2 sequence (looked up): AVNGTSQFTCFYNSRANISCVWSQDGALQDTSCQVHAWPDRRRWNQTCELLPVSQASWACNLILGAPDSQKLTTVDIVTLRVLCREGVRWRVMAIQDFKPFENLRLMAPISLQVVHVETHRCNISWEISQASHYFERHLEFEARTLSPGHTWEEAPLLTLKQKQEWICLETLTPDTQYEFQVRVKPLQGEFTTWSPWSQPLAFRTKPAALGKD

T3: human IL2Rα Fc fusion protein (human, UniProt P01589 22-213, limits assumed)
T3 construct: also called Recombinant Fc-tagged human IL2Rα; not shown: Fc
T3 sequence (looked up): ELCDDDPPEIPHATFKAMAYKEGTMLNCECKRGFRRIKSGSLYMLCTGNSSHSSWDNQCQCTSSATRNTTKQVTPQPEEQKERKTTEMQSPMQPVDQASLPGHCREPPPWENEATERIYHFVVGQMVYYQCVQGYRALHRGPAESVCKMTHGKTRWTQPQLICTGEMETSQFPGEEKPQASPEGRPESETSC

T4: human IL2Rα (human, UniProt P01589 22-213, limits assumed)
T4 construct: also called IL2α; CD25
T4 sequence (looked up): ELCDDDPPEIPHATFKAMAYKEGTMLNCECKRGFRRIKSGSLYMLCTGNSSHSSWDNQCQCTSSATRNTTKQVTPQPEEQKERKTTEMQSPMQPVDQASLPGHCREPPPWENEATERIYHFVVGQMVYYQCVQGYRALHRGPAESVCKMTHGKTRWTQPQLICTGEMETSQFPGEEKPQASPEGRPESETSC

B1: EP007 (ligand)
chain: APTSSSTKKTQLQLEHLLLDLQMILNGINNYKNPKLTRMLTFKFYMPKKATELKHLQCLEEELKPLEEVLNLAQSKNFHLKWGDAVSNARVLAGALKGSETTFMCEYADETATIVEFLNRWITFCQSIISTLT
notes: not shown: C-terminal Flag and 6xHis tags
B2: EP244 (ligand)
chain: APTSSSTKKTQLQLEHLLLDLQMILNGINNYKNPKLTRMLTFKFYMPKKATELKHLQCLEEELKPLEEVLNLAQSKNFHLRARDLIDNIRVIIQELKGSETTFMCEYADETATIVEFLNRWITFCQSIISTLT
notes: not shown: His and Flag tags
B3: EP257 (ligand)
chain: APTSSSTKKTQLQLEHLLLDLQMILNGINNYKNPKLTRMLTFKFYMPKKATELKHLQCLEEELKPLEEVLNLAQSKNFHLTARDLIDNIRVIILELKGSETTFMCEYADETATIVEFLNRWITFCQSIISTLT
notes: not shown: His and Flag tags
B4: EP243 (ligand)
chain: APTSSSTKKTQLQLEHLLLDLQMILNGINNYKNPKLTRMLTFKFYMPKKATELKHLQCLEEELKPLEEVLNLAQSKNFHLRPRDAIDNIRVIIQELKGSETTFMCEYADETATIVEFLNRWITFCQSIISTLT
notes: not shown: His and Flag tags
B5: EP102 (ligand, not shown: small tags and cut ends)
chain: APTSSSTKKTQLQLEHLLLDLQMILNGINNYKNPDLTSMLAFKFYMPKKATELKHLQCLEEELKPLEEVLNLAQSKNFHLRPRDLISNINVIVLELKGSETTFMCEYADETATIVEFLNRWITFSQSIISTLT
B6: EP250 (ligand)
chain: APTSSSTKKTQLQLEHLLLDLQMILNGINNYKNPKLTRMLTFKFYMPKKATELKHLQCLEEELKPLEEVLNLAQSKNFHLTPRDAISNIRVIIQELKGSETTFMCEYADETATIVEFLNRWITFCQSIISTLT
notes: not shown: His and Flag tags
B7: EP246 (ligand)
chain: APTSSSTKKTQLQLEHLLLDLQMILNGINNYKNPKLTRMLTFKFYMPKKATELKHLQCLEEELKPLEEVLNLAQSKNFHLRARDAIDNINVIIQELKGSETTFMCEYADETATIVEFLNRWITFCQSIISTLT
notes: not shown: His and Flag tags
B8: EP249 (ligand)
chain: APTSSSTKKTQLQLEHLLLDLQMILNGINNYKNPKLTRMLTFKFYMPKKATELKHLQCLEEELKPLEEVLNLAQSKNFHLTPRDLIDNIRVIIQELKGSETTFMCEYADETATIVEFLNRWITFCQSIISTLT
notes: not shown: His and Flag tags
B9: EP100 (ligand)
chain: APTSSSTKKTQLQLEHLLLDLQMILNGINNYKNPVLTRMLTIKFYMPKKATELKHLQCLEEELKPLEEVLNLAQSKNFHLRPRDLISNINVIVLELKGSETTFMCEYADETATIVEFLNRWITFSQSIISTLT
B10: EP125 (ligand)
chain: APTSSSTKKTQLQLEHLLLDLQMILNGINNYKNPKLTNMLTFKFAMPKKATELKHLQCLEEELKPLEEVLNLAQSKNFHLRPRDLISNINVIVLELKGSETTFMCEYADETATIVEFLNRWITFSQSIISTLT
B11: EP350 (ligand)
chain: APTSSSTKKTQLQLEHLLLDLQMILNGINNYKNPKLTRMLTAKFYMPKKATELKHLQCLEEELKPLEEVLNLAQSKNFHLTARDAISNINVIIQELKGSETTFMCEYADETATIVEFLNRWITFCQSIISTLT
notes: not shown: His and Flag tags
B12: EP347 (ligand)
chain: APTSSSTKKTQLQLEHLLLDLQMILNGINNYKNPKLTVMLTFKFSMPKKATELKHLQCLEEELKPLEEVLNLAQSKNFHLTPRDAIDNIRVIVQELKGSETTFMCEYADETATIVEFLNRWITFCQSIISTLT
notes: not shown: His and Flag tags
B13: EP248 (ligand)
chain: APTSSSTKKTQLQLEHLLLDLQMILNGINNYKNPKLTRMLTFKFYMPKKATELKHLQCLEEELKPLEEVLNLAQSKNFHLRARDAIDNIRVIILELKGSETTFMCEYADETATIVEFLNRWITFCQSIISTLT
notes: not shown: His and Flag tags
B14: EP245 (ligand)
chain: APTSSSTKKTQLQLEHLLLDLQMILNGINNYKNPKLTRMLTFKFYMPKKATELKHLQCLEEELKPLEEVLNLAQSKNFHLRARDAISNIRVIIQELKGSETTFMCEYADETATIVEFLNRWITFCQSIISTLT
notes: not shown: His and Flag tags
B15: EP101 (ligand)
chain: APTSSSTKKTQLQLEHLLLDLQMILNGINNYKNPKLTRMLTLKFPMPKKATELKHLQCLEEELKPLEEVLNLAQSKNFHLRPRDLISNINVIVLELKGSETTFMCEYADETATIVEFLNRWITFSQSIISTLT
B16: EP110 (ligand)
chain: APTSSSTKKTQLQLEHLLLDLQMILNGINNYKNPLLTDMLTRKFYMPKKATELKHLQCLEEELKPLEEVLNLAQSKNFHLRPRDLISNINVIVLELKGSETTFMCEYADETATIVEFLNRWITFCQSIISTLT
notes: not shown: His and Flag tags
B17: EP117 (ligand)
chain: APTSSSTKKTQLQLEHLLLDLQMILNGINNYKNPKLTYMLTFKFSMPKKATELKHLQCLEEELKPLEEVLNLAQSKNFHLRPRDLISNINVIVLELKGSETTFMCEYADETATIVEFLNRWITFSQSIISTLT
B18: EP120 (ligand)
chain: APTSSSTKKTQLQLEHLLLDLQMILNGINNYKNPKLTVMLTFKFTMPKKATELKHLQCLEEELKPLEEVLNLAQSKNFHLRPRDLISNINVIVLELKGSETTFMCEYADETATIVEFLNRWITFSQSIISTLT

Experiments:
[1] = target: T1, human IL2Rβ; test: SPR, receptor captured on Protein A chip, E. coli-produced IL2
Description: The assay was run with Biacore T200 control software version 2.0. For each cycle, 1 μg/mL of human IL2Rβ or IL2Rα was captured for 60 seconds at flow rate of 10 μL/min on flow cell 2 in 1×HBST buffer on Protein A sensor chip. Two-fold serial diluted HIS tag purified engineered IL2 mutant was injected onto both reference flow cell 1 and IL2Rβ or IL2Rα captured flow cell 2 for 150 seconds at flow rate of 30 μL/min followed by washing for 300 seconds. The flow cells were then regenerated with Glycine pH 2 for 40 seconds at a flow rate of 30 μL/mins. Eight concentration points from 0 to 100 nM were assayed for each IL2Rβ agonist clone 96-well plate format. The kinetics data was analyzed with Biacore T200 evaluation software 3000. The specific binding response unit was derived from subtraction of binding to reference flow cell 1 from target flow cell 2.

[2] = target: T2, human IL2Rβ Fc fusion protein; test: ELISA, receptor-Fc coated, anti-Flag HRP
Description: (§1) Briefly, 384 well plate was immobilized with human IL2Rα and IL2Rβ Fc fusion proteins at a final concentration of 2 ug/mL in 1×PBS in total volume of 25 uL per well. The plate was incubated overnight at 4 C and blocked with 80 uL of superblock per well for 1 hour. […] Each dilution was added to IL2Rα or IL2Rβ wells in parallel in duplicates. The IL2 mutant binding was detected by adding 25 uL of anti-Flag HRP diluted at 1:5000 in 1×PBST. In between each step, the plate was washed three times with 1×PBST using a plate washer. The plate was then developed with 25 uL of TMB substrate for five minutes and stopped by adding 25 ul of 2N sulfuric acid. The plate was read at OD450 nm Biotek plate reader and the EC50 was analyzed with Prism 8.1 software to generate EC50 values (FIG. 15A for IL2Rα, and FIG. 15B for IL2Rβ, summarized in Table 9).

[3] = target: T3, human IL2Rα Fc fusion protein; test: ELISA, receptor-Fc coated, anti-Flag HRP
Description: as §1

[4] = target: T4, human IL2Rα; test: SPR, IL2Rα captured on Protein A chip, IL2 at 100 nM
Description: The binding kinetics of IL2Rα-reduced binding clones to IL2Rα was assessed utilizing SPR technology with a Biacore T200, software version 2.0. For each cycle, 1 ug/mL of human IL2Rα was captured for 60 seconds at a flow rate of 10 uL/min on flow cell 2 in 1×HBSP buffer on a Protein A sensor chip. 100 nM of each HIS and Flag tag purified IL2 mutant was injected onto both the reference flow cell 1 and IL2Rα captured flow cell 2 for 150 seconds at a flow rate of 30 uL/min followed by washing for 300 seconds. The flow cells were then regenerated with Glycine pH 2.0 for 60 seconds at a flow rate of 30 uL/min. A HBSP+ buffer was included with each sample as a baseline control. The assay was set up in a 96-well format. The kinetics data was analyzed with Biacore T200 evaluation software 3.0. The specific binding response unit was derived from subtraction of binding to reference flow cell 1 from IL2Rα flow cell 2 and subtraction of buffer control. […] Relative response (RU) was determined for each IL2Rα-reduced binding clone (FIG. 4, Table 3).

[5] = target: T2, human IL2Rβ Fc fusion protein; test: ELISA, Fc-tagged receptor coated, anti-HisTag-HRP
Description: Recombinant Fc-tagged human IL2Rα and IL2Rβ were added in 25 uL of 1×PBS to wells of 384-well plate and incubated overnight at 4° C. to coat the plates. Plates were washed three times with 0.05% Tween20/1×PBS. Plates were blocked with 100 uL of SuperBlock for 1 hr at RT and then washed 3 times with 0.05% Tween20/1×PBS. IL2 mutants were diluted in 0.05% Tween 20/1×PBS from 1000 nM to 0 nM and added to plates for 2 hrs at room temperature. Plates were then washed 6 times with 0.05% Tween20/1×PBS. Anti-HisTag-HRP was diluted 1:5000 in 0.05% Tween20/1×PBS and added to plates for 1 hr at RT. Plates were then washed 6 times with 0.05% Tween 20/1×PBS, and TMB was added to develop blue color. Reactions were stopped with 2N […] and light absorbance at 450 nm was read on a BioTek plate reader.

Binder	EC50 [2] [nM]	EC50 [3] [nM]	RU (at 100 nM) [4] [RU]	Relevant binding to WT IL2 (%) [4] [%]	other results
B1	–	–	–	–	Kd [1]: 0.37 nM; koff [1]: 0.000263 s⁻¹; kon [1]: 709000 M⁻¹ s⁻¹; relative activity IL2Rβ (KD: fold) against WT IL2 [1]: 11700 fold
B2	2830	10.2	–	–	–
B3	–	5.6	–	–	–
B4	217	6.7	–	–	–
B5	–	–	2.7	1.9	–
B6	23.4	13.2	–	–	–
B7	269	7	–	–	–
B8	576	20.2	–	–	–
B9	–	–	1.7	1.19	–
B10	–	–	6.1	4.29	–
B11	–	–	–	–	EC50 [5]: 39.9 nM
B12	–	–	–	–	EC50 [5]: 77.6 nM
B13	188	13.4	–	–	–
B14	123	4.8	–	–	–
B15	–	–	2.5	1.76	–
B16	–	–	2.6	1.83	–
B17	–	–	2.5	1.76	–
B18	–	–	3.6	2.54	–
